Measurements from PMC9042962.

Target: GFP-BLM (full-length Bloom helicase, GFP fusion protein) (human) (UniProt P54132)
Test: photobleaching step counting (single-molecule TIRFM, DNA curtain); GFP-tagged BLM (0.2 nM injected) bound to the free ends (30-nt 3' ssDNA overhang) of lambda-DNA tethered to a lipid bilayer; number of GFP photobleaching steps per end-bound complex; BLM buffer (20 mM Tris-HCl pH 7.5, 1 mM MgCl2, 2 mM ATP, 1 mM DTT, 0.2 mg/ml BSA), 37 °C; oligomer counted on DNA ends

## GFP-BLM (full-length Bloom helicase, GFP fusion protein), P54132 1-1417 (enzyme; other documents disagree on this pair)
  stoichiometry N: 1 to 6 monomers
  stoichiometry N (BLM monomers per DNA end): 3.6
